From patent US7888090B2, “Mutants of O6-alkylguanine-DNA alkyltransferase” (Ecole Polytechnique Federale de Lausanne, priority 2004, dated 2011)
Residue numbers refer to the chain shown, from its start.

B1: Gln115Ser, Gln116His, Cys150Asn, Ser151Ile, Ser152Asn, Asn157Gly, Ser159Glu: hAGT mutant with the listed mutations, selected by phage display (protein, UniProt P16455 1-207, looked up, variant Q115S Q116H C150N S151I S152N N157G S159E)
Methylated-DNA--protein-cystei …: MDKDCEMKRTTLDSPLGKLELSGCEQGLHEIKLLGKGTSAADAVEVPAPAAVLGGPEPLMQCTAWLNAYFHQPEAIEEFPVPALHHPVFQQESFTRQVLWKLLKVVKFGEVISYSHLAALAGNPKAARAVGGAMRGNPVPILIPCHRVVNINGAVGGYEGGLAVKEWLLAHEGHRLGKPGLGGSSGLAGAWLKGAGATSGSPPAGRN
B2: Lys8Thr, Thr127Ala, Ala154Thr, His174Arg: AGT mutant having all mutations of AGTM and additionally those listed (protein, UniProt P16455 1-207, looked up, variant K8T C62A Q115S Q116H K125A R128A G131K G132T M134L R135S C150N S151I S152N A154T N157G S159E H174R del183-207)
Methylated-DNA--protein-cystei …: MDKDCEMTRTTLDSPLGKLELSGCEQGLHEIKLLGKGTSAADAVEVPAPAAVLGGPEPLMQATAWLNAYFHQPEAIEEFPVPALHHPVFQQESFTRQVLWKLLKVVKFGEVISYSHLAALAGNPAAAAAVKTALSGNPVPILIPCHRVVNINGTVGGYEGGLAVKEWLLAHEGRRLGKPGLG
B3: Lys32lle, Leu33Phe, Gly182Val: AGT mutant having all mutations of AGTM and additionally those listed (protein, UniProt P16455 1-207, looked up, variant K32I L33F C62A Q115S Q116H K125A A127T R128A G131K G132T M134L R135S C150N S151I S152N N157G S159E G182V del183-207)
Methylated-DNA--protein-cystei …: B2 Methylated-DNA--protein-cystei … with T8K, K32I, L33F, A127T, T154A, R174H, G182V
B4: Lys104Glu, Thr127Ala, Ala154Thr: AGT mutant having all mutations of AGTM and additionally those listed (protein, UniProt P16455 1-207, looked up, variant C62A K104E Q115S Q116H K125A R128A G131K G132T M134L R135S C150N S151I S152N A154T N157G S159E del183-207)
Methylated-DNA--protein-cystei …: B2 Methylated-DNA--protein-cystei … with T8K, K104E, R174H
B5: Lys32lle, Leu33Phe, Asn150Gly, lle151Gly, Asn152Asp, Ala154Asp: AGT mutant having all mutations of AGTM and additionally those listed (protein, UniProt P16455 1-207, looked up, variant K32I L33F C62A Q115S Q116H K125A A127T R128A G131K G132T M134L R135S C150G S151G S152D A154D N157G S159E del183-207)
Methylated-DNA--protein-cystei …: B2 Methylated-DNA--protein-cystei … with T8K, K32I, L33F, A127T, N150G, I151G, N152D, T154D, R174H
B6: Asn150Glu, lle151Gly, Asn152Trp, Gly153Asn, Ala154Glu: AGT mutant having all mutations of AGTM and additionally those listed (protein, UniProt P16455 1-207, looked up, variant C62A Q115S Q116H K125A A127T R128A G131K G132T M134L R135S C150E S151G S152W G153N A154E N157G S159E del183-207)
Methylated-DNA--protein-cystei …: B2 Methylated-DNA--protein-cystei … with T8K, A127T, N150E, I151G, N152W, G153N, T154E, R174H
B7: Asn150Glu, lle151Gly, Asn152Glu, Ala154Arg: AGT mutant having all mutations of AGTM and additionally those listed (protein, UniProt P16455 1-207, looked up, variant C62A Q115S Q116H K125A A127T R128A G131K G132T M134L R135S C150E S151G S152E A154R N157G S159E del183-207)
Methylated-DNA--protein-cystei …: B2 Methylated-DNA--protein-cystei … with T8K, A127T, N150E, I151G, N152E, T154R, R174H
B8: Ala154Thr: AGT mutant having all mutations of AGTM and additionally those listed (protein, UniProt P16455 1-207, looked up, variant C62A Q115S Q116H K125A A127T R128A G131K G132T M134L R135S C150N S151I S152N A154T N157G S159E del183-207)
Methylated-DNA--protein-cystei …: B2 Methylated-DNA--protein-cystei … with T8K, A127T, R174H
B9: Lys32lle, Leu33Phe, Ala154Thr: AGT mutant having all mutations of AGTM and additionally those listed (protein, UniProt P16455 1-207, looked up, variant C62A Q115S Q116H K125A A127T R128A G131K G132T M134L R135S C150N S151I S152N N157G S159E del183-207 K32I L33F A154T)
Methylated-DNA--protein-cystei …: B2 Methylated-DNA--protein-cystei … with T8K, K32I, L33F, A127T, R174H
B10: Asn150Glu, lle151Ser, Asn152His, Ala154Lys: AGT mutant having all mutations of AGTM and additionally those listed (protein, UniProt P16455 1-207, looked up, variant C62A Q115S Q116H K125A A127T R128A G131K G132T M134L R135S C150E S152H A154K N157G S159E del183-207)
Methylated-DNA--protein-cystei …: B2 Methylated-DNA--protein-cystei … with T8K, A127T, N150E, I151S, N152H, T154K, R174H
B11: Asn150Glu, lle151Gly, Asn152Arg, Gly153Glu, Ala154Arg: AGT mutant having all mutations of AGTM and additionally those listed (protein, UniProt P16455 1-207, looked up, variant C62A Q115S Q116H K125A A127T R128A G131K G132T M134L R135S C150E S151G S152R G153E A154R N157G S159E del183-207)
Methylated-DNA--protein-cystei …: B2 Methylated-DNA--protein-cystei … with T8K, A127T, N150E, I151G, N152R, G153E, T154R, R174H
B12: Asn150Val, lle151Ser, Asn152Arg, Gly153Asp, Ala154Asp: AGT mutant having all mutations of AGTM and additionally those listed (protein, UniProt P16455 1-207, looked up, variant C62A Q115S Q116H K125A A127T R128A G131K G132T M134L R135S C150V S152R G153D A154D N157G S159E del183-207)
Methylated-DNA--protein-cystei …: B2 Methylated-DNA--protein-cystei … with T8K, A127T, N150V, I151S, N152R, G153D, T154D, R174H
B13: Asn150Val, lle151Asn, Asn152Asp, Gly153Leu, Ala154Asp: AGT mutant having all mutations of AGTM and additionally those listed (protein, UniProt P16455 1-207, looked up, variant C62A Q115S Q116H K125A A127T R128A G131K G132T M134L R135S C150V S151N S152D G153L A154D N157G S159E del183-207)
Methylated-DNA--protein-cystei …: B2 Methylated-DNA--protein-cystei … with T8K, A127T, N150V, I151N, N152D, G153L, T154D, R174H
B14: Cys62Ala, Lys125Ala, Ala127Thr, Arg128Ala, Asn157Gly, Ser159Glu: hAGT mutant with the listed mutations (protein, UniProt P16455 1-207, looked up, variant C62A K125A A127T R128A N157G S159E)
Methylated-DNA--protein-cystei …: B1 Methylated-DNA--protein-cystei … with C62A, S115Q, H116Q, K125A, A127T, R128A, N150C, I151S, N152S
B15: truncated PGEG-hAGT: PGEG-hAGT (Asn157Gly, Ser159Glu) truncated after codon 182 (protein, UniProt P16455 1-207, looked up, variant N157G S159E del183-207)
Methylated-DNA--protein-cystei …: MDKDCEMKRTTLDSPLGKLELSGCEQGLHEIKLLGKGTSAADAVEVPAPAAVLGGPEPLMQCTAWLNAYFHQPEAIEEFPVPALHHPVFQQESFTRQVLWKLLKVVKFGEVISYQQLAALAGNPKAARAVGGAMRGNPVPILIPCHRVVCSSGAVGGYEGGLAVKEWLLAHEGHRLGKPGLG

Assay: Expression yield of soluble GST-AGT fusion protein
Design: species or system E. coli
Conditions: comparator not stated
Protocol: Expression yield is measured in E. coli or in any other of the standard production cells for genetically modified proteins, e.g. yeast, or preferably insect cells, CHO cells or HeLa cells. For quantifying expression yield, AGT fusion proteins may be chosen such that the fusion partner allows easy purification and quantification. For example, expression yield in E. coli is determined by measuring and comparing the yield of soluble and insoluble GST-wild type AGT fusion protein and GST-mutant AGT fusion protein from parallel E. coli expression cultures. Samples of the soluble fractions and insoluble fractions (i.e. the inclusion bodies) after cell lysis are subjected to SDS-PAGE, and the band staining intensities of the corresponding AGT fusion proteins are compared. Soluble protein is quantified after purification of the fusion protein from cell extracts by affinity chromatography (e.g. for GST-AGT fusion proteins by glutathione sepharose) by subjecting the purified fractions to a protein concentration assay (Bradford, Anal Biochem 72:248-54, 1976). The expression yield of similar proteins in the soluble fraction (difference in point mutations) can be used as a measure for protein stability in the unpurified as well as the purified state (Ohage et al., J Mol Biol 291:1119-1128, 1999; Wirtz et al., Protein Sci 8: 2245-50, 1999). Therefore, this is taken as a measure of folding stability and aggregation tendency.
Protein expression from this vector is carried out in E. coli strain BL21. An exponentially growing culture is induced with 0.5 mM IPTG, and the expression is carried out for 3.5 h at 24° C.
Purification: The harvested cells are resuspended in a buffer containing 50 mM phosphate, 0.5 M NaCl, 1 mM DTT, supplemented with 1 mM PMSF and 2 μg/ml aprotinin, and disrupted by lysozyme and sonification. The cell debris are separated by centrifugation at 40000×g. The extract is applied to pre-equilibrated glutathione sepharose (Amersham) which is then washed with 20 bed volumes (50 mM phosphate, 0.5 M NaCl, 1 mM DTT). The mutated GST-AGT fusion protein is eluted with 10 mM reduced glutathione in 50 mM Tris·HCl pH 7.9. The purified protein is dialyzed against 50 mM HEPES pH 7.2; 1 mM DTT; 30% glycerol and then stored at −80° C.
Determination of protein yield: Purity and relative amounts of the GST-AGT fusion proteins are compared by running samples on SDS-PAGE. UV spectra of the pure fractions are recorded using a Perkin Elmer Lambda 10. For protein samples containing no significant amount of DNA, the extinction at 280 nm as a measure of protein content is compared to that of wild type hAGT or PGEG-hAGT that were purified under the same conditions.

Molecule | expression yield in E. coli
B1 | substantially increased expression yield

Assay: BG-Cy3 activity assay (reaction rate of AGT mutants)
Type: biochemical
Conditions: divided by value for wild type hAGT; periplasmic extracts (x.)
Protocol: Reactivity against DNA-based substrates measured with a BG-Cy3 assay: BG-Cy3 is prepared by reacting the previously described O^6-(4-aminomethyl-benzyl)guanine (Keppler et al., NatureBiotechnol. 21:86-89, 2003) with the commercially available N-hydroxysuccinimide ester of Cy3, (Cy3-NHS, Amersham). The coupling reaction is performed at ambient temperature in N,N-dimethylformamide in the presence of 1 eq. of triethylamine. The BG-Cy3 conjugate is purified by reversed-phase HPLC on a C18-column by using linear gradients from 0.1% trifluoroacetic acid to acetonitrile. After solvent evaporation BG-Cy3 is dissolved in dimethyl sulfoxide and stored at −20° C. For measuring the reactivity with DNA-based substrates, a reaction mixture containing different concentrations (0 to 5 µM) of oligonucleotide SEQ ID NO:2 (modified in position 14), GST-AGT fusion protein at 0.2 µM and BG-Cy3 at […] in reaction buffer (50 mM HEPES, pH 7.2, 1 mM DTT, 200 mg/ml BSA) is incubated in microtiterplates. Fluorescence of the Cy3 derivative (excitation 519 nm, emission at 572 nm) is measured on a Spectramax Gemini plate reader (Molecular Devices).
The amplified products are cloned in fusion to the g3 gene of filamentous phage in the vector pAK100 via SfiI restriction sites. The resulting gene libraries are used for phage display as described under Example 4. The mutants of the libraries are selected with 5 to 50 nM of BG-Bt for 10 min. Selected mutants are subcloned into pGEX using the primers SEQ ID NO:3 and SEQ ID NO:13. The reaction rate of mutant AGTs is determined as described in Example 6, Reactivity against DNA-based substrates (BG-Cy3 assay).
For the activity assay purified GST fusion proteins were used for mutants marked with “p.” (prepared as described under Example 1); periplasmic extracts were used for mutants marked with “x.” (prepared as described under Example 2).

Molecule | Relative reaction rate
B2 | 15.66
B3 | 9.48
B4 | 12.34

Same assay, conditions: divided by value for wild type hAGT; purified GST fusion proteins (p.)

Molecule | Relative reaction rate
B5 | 45.45
B6 | 11.97
B7 | 18.42
B8 | 14.90
B9 | 33.89
B10 | 15.43
B11 | 11.20
B12 | 21.26
B13 | 15.67

Assay: Activity assay with biotinylated O^6-benzylguanine (BG-Bt), Western blotting
Type: biochemical
Conditions: statement in words
Protocol: Activity towards O^6-benzylguanine substrates is measured as described by Juillerat et al., Chem Biol 10:313-317, 2003.
Activity assay: Purified mutated GST-AGT is incubated in vitro with a biotinylated O^6-benzylguanine (BG-Bt, substance 3a of Juillerat et al., Chem Biol 10:313-317, 2003). In a total reaction volume of 80 […]I, 0.2 µM GST-AGT are incubated with 1 µM substrate in 50 mM HEPES pH 7.2 and 1 mM DTT at room temperature. At several points of time an aliquot is quenched with 1 mM O^6-benzylguanine (Sigma) in SDS-Laemmli buffer and subjected to Western blotting analysis (neutravidin-peroxidase conjugate (PIERCE), Renaissance reagent plus (NEN)). The intensity of the corresponding bands is quantified by a Kodak Image Station 440.

Molecule | activity towards O^6-benzylguanine substrates
B1 | retains activity
B14 | retains activity
B15 | retains activity
